Source: publication PMC9965858

What was measured:
[1] = biological target: Dengue virus type 2 non-structural protein 1 (NS1) produced by DENV2-infected A549 cells (Dengue virus type 2) (UniProt P14340); experiment: SDS-PAGE of samples heated or not heated, then Western blot
[2] = biological target: recombinant DENV2-NS1^V5-tag (Dengue virus type 2) (UniProt P14340); experiment: as above

Substance	stoichiometry N [1]	stoichiometry N [2]
Dengue virus type 2 non-structural protein 1 (NS1) produced by DENV2-infected A549 cells (from UniProt P14340) (natural protein)	2	
recombinant DENV2-NS1^V5-tag (from UniProt P14340 776-1127) (natural protein)		2
